This is an account of results in patent publication US20240316157A1, “PHARMACEUTICAL COMPOSITION OF PCSK9 INHIBITOR AND GLP-1 RECEPTOR AGONIST” (Gan & Lee Pharmaceuticals Co., Ltd., priority 2021, published 2024).

Data set [1] has as its system wild-type hamsters. The data set can be described thus: Effect of the combination of Alirocumab and semaglutide on blood glucose in hamsters. As to conditions: for Blood glucose (relative concentration): 7th day after dosing relative to baseline, s.c. once every two days, high-fat high-sugar feed, x±s; for Blood glucose decline rate E value: 7th day, versus control group, recorded as 0 if not significantly different from control. Type of data set: in vivo, hamster. As to the method:
The experimental animals in this Example were wild-type hamsters, and the hamsters were grouped and administered according to the following standard: • 1) Control group: injection of excipient samples, subcutaneous injection (administration of […]), once every two days; • 2) Alirocumab group: injection of Alirocumab sample (Alirocumab 10 mg/kg), subcutaneous injection, once every two days; • 3) Semaglutide group: injection of semaglutide sample (semaglutide 0.12 mg/kg), subcutaneous injection, once every two days; • 4) Alirocumab+semaglutide group: injection of Alirocumab (Alirocumab 10 mg/kg) and semaglutide (semaglutide 0.12 mg/kg) by subcutaneous injection, the frequency of administration was once every two days.
On the first day of the experiment, each group of wild-type hamsters was given high-fat and high-sugar feed (containing 10% lard, 10% cholesterol, and 60% fructose) and injected with drugs according to the above dosing regimen for each group, and blood was collected from the inner canthus vein of the hamster on the day before administrating and 7th day after dosing, plasma was anticoagulated with sodium heparin, and plasma was obtained by centrifugation of the whole blood at 4° C. for 10 min at 4000 rpm, and the blood glucose level was detected by glucose assay kit (Biosino Bio-Technology and Science Incorporation).
The obtained blood glucose data were normalized according to the following method: taking the blood glucose of each group before the administration of the drug as the baseline, the relative concentration of the corresponding time point obtained by comparing the blood glucose at the monitoring point after the administration of the drug to the baseline glucose, the relative concentration of blood glucose was expressed as x±s, and the decline rate of the blood glucose of each administration group was calculated by using the analysis of variance using the GraphPad Prism software, in which x means the average value of data, and s denotes the standard deviation.
Decline rate of blood glucose: E=[(relative blood glucose of […])/relative blood glucose of control group]×100%
Note: If there is no significant difference between the relative blood glucose value of the administered group and the relative blood glucose of the control group, the value of E is recorded as 0.
Calculation method of synergistic effect: the determination was made by using Zhengjun Jin's Q value, in which the Q value was obtained by the following formula: Q=Ea+b/(Ea+Eb−Ea×Eb); wherein Ea+b indicated the decline rate of detection indexes of the combination and mixed administration of the two drugs, and Ea, Eb indicated the decline rate of detection indexes of the two drugs used alone. If Q is between 0.85 and 1.15, it means that the two drugs have an additive effect; Q>1.15, the two drugs have a synergistic effect; Q<0.85, the two drugs have an antagonistic effect.

Data set [2] relates to humanized mice overexpressing PCSK9 (B6-hPCSK9). The data set is described as follows: Animal efficacy of Evolocumab in combination with Compound 5: body weight, fasting blood glucose, LDL-C. Type of data set: in vivo, mouse.
Description: In this example, humanized mice overexpressing PCSK9 (B6-hPCSK9) (males, 6 weeks old) were used, totaling 30 mice. These humanized mice were divided into six groups: K0-K5, with 5 mice per group. K0 served as the NC control group (fed a high-fat feed throughout the experiment), while K1-K5 were experimental groups. After a 1-week adaptation period with growth and breeding feed (Keao Xieli Feed), they were fed a high-fat diet for one month (Xietong Pharmaceutical Bio-engineering), and dosing was initiated after the high-fat diet feeding.
The dosing for each experimental group was done via subcutaneous injection once in total, with the dose administrated calculated based on the dose of Evolocumab. […] If the dose was doubled (2×), the dose was doubled accordingly.
Throughout the experiment, various indicators were monitored with the following frequencies: for weight monitoring, the weight was measured and recorded before dosing and then every other day after blood collection, this was performed a total of 3 times. […] Blood glucose levels were measured using a glucose assay kit (provided by Biosino Bio-Technology and Science Inc). […] LDL-C in the serum samples was measured using an LDL-C test kit (Nanjing Jiacheng Bioengineering Institute).
For data set [3], the system named is transgenic mice overexpressing human PCSK9. The data set is described as follows: Effect of Evolocumab in combination with Compound 5 on blood lipid (LDL-C) in hyperlipidemic mice. Type of data set: in vivo, mouse. The conditions noted are these: conclusion in words from Table 3. As to the method:
In this example, experimental animals were transgenic mice overexpressing human PCSK9 (4 weeks old). After being fed a high-fat diet for 37 days, their fasting lipid levels were measured.
On the 5th day after dosing, the lipid levels of the mice were measured. The lipid measurement method was as follows: Blood was collected from the mice via the inner canthus vein, plasma was obtained by centrifuging whole blood at 4° C. and 4000 rpm for 10 minutes with sodium heparin as an anticoagulant. LDL-C levels were measured using an LDL-C assay kit (Nanjing Jiancheng Bioengineering Institute).
The blood lipid data obtained were normalized using the following method: The blood lipid of each group before administration was taken as baseline, and the relative concentration of lipid at the corresponding time point obtained by comparing the blood lipid at the monitoring points after administration with that before administration. The relative concentration of blood lipid is represented as ‘x±s’, with ‘x’ representing the mean value of the data and ‘s’ representing the standard deviation. Variance analysis was conducted using GraphPad Prism software.

For data set [4], the system named is wild-type hamsters. The data set is described as follows: Effect of the combination of Evolocumab and Compound 5 on blood glucose in hamsters. In kind it is in vivo, hamster.
Protocol: The experimental animals in this Example were wild-type hamsters, and the hamsters were grouped and administered according to the following standard: • 1) Control group: subcutaneous injection of excipient samples, subcutaneous injection (administration of 2 μL/kg), once every two days; • 2) Evolocumab group: injection of Evolocumab samples (Evolocumab 30 mg/kg) by subcutaneous injection, once every two days; • 3) Compound 5 group: injection of compound 5 sample (compound 5: 0.12 mg/kg), using subcutaneous injection, once every two days; • 4) Evolocumab+Compound 5 group: injection of a pharmaceutical combinations containing Evolocumab and Compound 5 (Evolocumab 30 mg/kg, Compound 5: 0.12 mg/kg) by subcutaneous injection once every two days.
On the first day of the experiment, each group of wild-type hamsters was given high-fat and high-sugar feed (containing 10% lard, 10% cholesterol, and 60% fructose) and injected with samples according to the dosing regimen described above for each group, and blood was collected from the inner canthus vein of the hamsters on the day before administration and 7th day after administration, and plasma was anticoagulated with heparin sodium, and plasma was obtained by centrifugation for 10 min at 4° C. at 4,000 rpm, and the blood glucose level was measured by glucose assay kit (Biosino Bio-Technology and Science Incorporation.) […]
Data set [5] in a line: CEX-HPLC acid-to-base peak ratio of Evolocumab (storage stability). In kind it is physicochemical. The conditions noted are these: 4° C., reference of one-month study of Suspension Formulation-2.
The nature of data set [6]: Reduced CE-SDS light and heavy chain ratio of Evolocumab (storage stability). In kind it is physicochemical. The conditions noted are these: 4° C., reference of one-month study of Suspension Formulation-2. From the text: The Acidic and Alkaline Peak ratio of Evolocumab monoclonal antibody in Suspension Formulation-2 falls within the quality standard range of originator product. (main peak≥51%, alkaline peak≤16%). • (4) The results of reduced CE-SDS testing for the light-heavy chain ratio of Evolocumab monoclonal antibody in Suspension Formulation-2 are presented in Table 22: […]

Regarding Alirocumab, in data set [1], the “Blood glucose (relative concentration)” value is recorded as 0.71 ± 0.049 and the “Blood glucose decline rate E value” is on record as 0%. In addition, in data set [1] (conclusion in words from Table 1), the hypoglycemic function entry is “did not show a hypoglycemic function”.
For the molecule Semaglutide, in data set [1], the “Blood glucose (relative concentration)” value is given as 0.61 ± 0.062 and the “Blood glucose decline rate E value” was found to be 14.1%.

B1: Evolocumab (antibody, chains of the INN, looked up, V domains shown)
VH: EVQLVQSGAEVKKPGASVKVSCKASGYTLTSYGISWVRQAPGQGLEWMGWVSFYNGNTNYAQKLQGRGTMTTDPSTSTAYMELRSLRSDDTAVYYCARGYGMDVWGQGTTVTVSS
VL: ESALTQPASVSGSPGQSITISCTGTSSDVGGYNSVSWYQQHPGKAPKLMIYEVSNRPSGVSNRFSGSKSGNTASLTISGLQAEDEADYYCNSYTSTSMVFGGGTKLTVL
notes: PCSK9 antibody; source is Repatha®, commercially available from Amgen
For B1, the body weight entry in data set [2] (single s.c. 1× dose (K2 530 ug/kg Compound 5; K3, K4 12.3 mg/kg Evolocumab), FIGS. 1-2) is given as “did not experience weight loss”. The LDL-C result in data set [2] (single s.c. 1× dose (K3, K4 12.3 mg/kg Evolocumab), FIG. 5) is on record as “ability to lower LDL-C levels was consistent”. The lipid-lowering effect entry in data set [3] is recorded as “lipid-lowering effects”. Besides, the “Blood glucose decline rate E value” in data set [4] (7th day, versus control group, recorded as 0 if not significantly different from control) was found to be 0%. Also, the hypoglycemic function result in data set [4] (conclusion in words from Table 2) is reported as “did not show a hypoglycemic function”.

B2: Laboratory-Purified Evolocumab: Commercially available Evolocumab (Repatha®) purified in the laboratory, 140 mg/ml (antibody, chains of the INN, looked up, V domains shown)
VH: EVQLVQSGAEVKKPGASVKVSCKASGYTLTSYGISWVRQAPGQGLEWMGWVSFYNGNTNYAQKLQGRGTMTTDPSTSTAYMELRSLRSDDTAVYYCARGYGMDVWGQGTTVTVSS
VL: ESALTQPASVSGSPGQSITISCTGTSSDVGGYNSVSWYQQHPGKAPKLMIYEVSNRPSGVSNRFSGSKSGNTASLTISGLQAEDEADYYCNSYTSTSMVFGGGTKLTVL
On to B2, for which the “Alkaline Peak (%)” value in data set [5] was 10.569%. For the same molecule, the “Pre-LC + LC + HC(%)” value in data set [6] turned out to be 98.79%.
